Assay [1] addresses T1, FcgRIIa H extracellular domain with C-terminal His tag (human, UniProt P12318 34-217).
T1 construct: extracellular domain; also called FcγRIIa H; FcγRIIa type H; not shown: His tag attached to the C terminus
T1 sequence (looked up): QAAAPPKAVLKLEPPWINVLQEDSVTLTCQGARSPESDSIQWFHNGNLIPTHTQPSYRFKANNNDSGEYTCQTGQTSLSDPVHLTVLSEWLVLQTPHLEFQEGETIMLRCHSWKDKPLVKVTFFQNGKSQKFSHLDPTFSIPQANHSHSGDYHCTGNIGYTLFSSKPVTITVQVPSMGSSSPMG
Nature of the assay: SPR (Biacore), antibody captured on chip, FcγR extracellular domain as analyte, kinetic analysis. How it is done: (§1) Analysis of interaction between obj ective antibody and the FcγR was carried out using Biacore T100 (GE Healthcare), Biacore T200, Biacore A100, and Biacore 4000. HBS-EP+ (GE Healthcare) was used as the running buffer, and the measurement temperature was set to 25° C. Chips produced by immobilizing the antigen peptide by the amine coupling method to a Series S sensor Chip CM5 (GE Healthcare), chips produced by allowing preliminarily biotinylated antigen peptides to interact with and immobilize onto a Series S Sensor Chip SA (certified) (GE Healthcare), chips produced by immobilizing Protein L (ACTIGEN, BioVision) to Series S Sencor Chip CM5 (GE Healthcare), or chips produced by immobilizing Protein A/G (Thermo Scientific) to Series S Sencor Chip CM5 (GE Healthcare) were used. Antibodies of interest were captured onto these chips, and allowed to interact to each FcγR diluted with running buffer. To regenerate and repeatedly use the chip, the antibodies captured onto the chip were washed off by reacting 10 mM glycine-HCl, pH 1.5.
Background: SPR reads the build-up and loss of mass on a sensor chip optically.

Assay [2] has as its target T2, FcgRIa extracellular domain with C-terminal His tag (human, UniProt P12314 16-292).
T2 construct: extracellular domain; Expressed in FreeStyle293 cells; used as analyte in Biacore; also called FcγRIa; FcγRI; not shown: His tag attached to the C terminus
The assay is described as above. How it is done: as §1

Assay [3] deals with T3, FcgRIIa R extracellular domain with C-terminal His tag (human, UniProt P12318 34-217).
T3 construct: extracellular domain; also called FcγRIIa R; FcγRIIa type R; not shown: His tag attached to the C terminus
T3 sequence (looked up): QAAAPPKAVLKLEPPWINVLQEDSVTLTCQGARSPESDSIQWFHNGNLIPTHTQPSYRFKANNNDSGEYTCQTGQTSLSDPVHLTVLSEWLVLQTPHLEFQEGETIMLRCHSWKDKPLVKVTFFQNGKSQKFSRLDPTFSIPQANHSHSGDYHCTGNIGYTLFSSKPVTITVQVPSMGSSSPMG
Described as above. How it is done: as §1

The target in assay [4] is T4, FcgRIIb extracellular domain with C-terminal His tag (human, UniProt P31994 43-217).
T4 construct: extracellular domain; also called FcγRIIb; not shown: His tag attached to the C terminus
T4 sequence (looked up): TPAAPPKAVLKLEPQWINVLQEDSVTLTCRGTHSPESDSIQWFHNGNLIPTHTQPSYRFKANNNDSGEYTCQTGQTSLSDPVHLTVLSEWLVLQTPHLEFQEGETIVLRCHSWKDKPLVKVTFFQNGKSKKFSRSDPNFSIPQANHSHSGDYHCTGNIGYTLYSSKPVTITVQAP
The assay is described as above. How it is done: as §1

For assay [5], the target named is T5, FcgRIIIa F extracellular domain with C-terminal His tag (human, UniProt P08637 17-208).
T5 construct: extracellular domain; also called FcγRIIIa F; FcγRIIIa (F158); not shown: His tag attached to the C terminus
T5 sequence (P08637 17-208): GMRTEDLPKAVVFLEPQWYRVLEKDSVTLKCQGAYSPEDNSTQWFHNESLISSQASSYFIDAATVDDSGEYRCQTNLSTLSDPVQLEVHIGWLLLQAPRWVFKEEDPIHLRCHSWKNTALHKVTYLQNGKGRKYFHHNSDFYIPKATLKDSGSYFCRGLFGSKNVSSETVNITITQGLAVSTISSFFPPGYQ
The assay is described as above. How it is done:
as §1

Assay [6] deals with T6, FcgRIIIa V extracellular domain with C-terminal His tag (human, UniProt P08637 17-208).
T6 construct: extracellular domain; also called FcγRIIIa V; FcγRIIIa (V158); not shown: His tag attached to the C terminus
T6 sequence (P08637 17-208 F176V): as the sequence (P08637 17-208) above, with F160V counted along it
Described as above. Here is the method: as §1

The target of the next assay is T7, FcgRIIIa F (human, UniProt P08637 17-208).
T7 construct: extracellular domain; also called FcγRIIIa F; not shown: His tag attached to the C terminus
T7 sequence (P08637 17-208): as the sequence (P08637 17-208) above
As to the kind of experiment: SPR (Biacore), antibody captured on chip, FcgR extracellular domain as analyte. Here is the method:
as §1

A further assay addresses T8, FcgRIIa R (human, UniProt P12318 34-217).
T8 construct: extracellular domain; also called FcγRIIa R; FcγRIIa type R; not shown: His tag attached to the C terminus
T8 sequence (looked up): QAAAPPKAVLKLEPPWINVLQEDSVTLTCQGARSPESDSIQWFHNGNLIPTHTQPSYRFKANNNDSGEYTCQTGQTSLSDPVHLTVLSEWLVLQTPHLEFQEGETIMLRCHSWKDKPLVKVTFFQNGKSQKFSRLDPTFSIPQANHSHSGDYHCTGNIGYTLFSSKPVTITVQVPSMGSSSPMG
The assay is described as above. How it is done: as §1

The target in another assay is T9, FcgRIIb (human, UniProt P31994 43-217).
T9 construct: extracellular domain; Expressed in FreeStyle293 cells and purified; used as analyte in Biacore; also called FcγRIIb; CD32B; not shown: His tag attached to the C terminus
T9 sequence (looked up): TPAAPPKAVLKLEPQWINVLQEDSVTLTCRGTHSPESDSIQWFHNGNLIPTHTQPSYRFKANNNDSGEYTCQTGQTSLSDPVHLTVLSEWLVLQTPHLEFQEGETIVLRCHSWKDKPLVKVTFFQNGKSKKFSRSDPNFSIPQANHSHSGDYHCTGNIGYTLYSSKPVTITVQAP
The description is as above. How it is done: as §1

The target in another assay is T10, FcgRIIa H (human, UniProt P12318 34-217).
T10 construct: extracellular domain; also called FcγRIIa H; FcγRIIa type H; not shown: His tag attached to the C terminus
T10 sequence (looked up): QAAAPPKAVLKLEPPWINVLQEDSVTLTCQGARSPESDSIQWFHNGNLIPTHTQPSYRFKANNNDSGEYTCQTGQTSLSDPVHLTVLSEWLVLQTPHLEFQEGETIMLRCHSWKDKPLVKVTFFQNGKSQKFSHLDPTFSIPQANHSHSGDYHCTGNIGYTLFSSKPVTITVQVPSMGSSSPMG
The description is as above. How it is done:
as §1

The target in the next assay is T11, FcgRIa (human, UniProt P12314 16-292).
T11 construct: extracellular domain; Expressed in FreeStyle293 cells and purified; used as analyte in Biacore; also called FcγRIa; FcγRI; not shown: His tag attached to the C terminus
T11 sequence (P12314 16-292): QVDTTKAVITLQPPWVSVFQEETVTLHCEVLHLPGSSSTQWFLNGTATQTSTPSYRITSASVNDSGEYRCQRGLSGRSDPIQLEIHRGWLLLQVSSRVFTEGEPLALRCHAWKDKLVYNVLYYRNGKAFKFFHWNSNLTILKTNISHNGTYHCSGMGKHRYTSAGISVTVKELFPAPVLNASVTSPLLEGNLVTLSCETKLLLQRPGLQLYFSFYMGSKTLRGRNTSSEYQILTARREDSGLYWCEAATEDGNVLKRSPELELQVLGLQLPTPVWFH
Described as above. Here is the method: as §1

The next assay has as its target T12, FcgRIIIa V (human, UniProt P08637 17-208).
T12 construct: extracellular domain; also called FcγRIIIa V; not shown: His tag attached to the C terminus
Described as above. How it is done:
as §1

The values below come from US20180155451A1 (published 2018).

T2 sequence (P12314 16-292): as above
T12 sequence (P08637 17-208 F176V limits assumed): as the sequence (P08637 17-208) above, with F160V counted along it

B1: H240-Kn032/H240-Hl032/L73-k0 (antibody, human IgG1, kappa)
heavy 1: QDQLVQSGAEVKKPGASVKVSCKASGFNIKDTYIQWVRQAPGQGLEWMGRIDPLRKQTKYREKFEGRVTITADTSTNTAYMELSSLRSEDTAVYYCVRSGREFDYWGQGTLVTVSSASTKGPSVFPLAPSSKSTSGGTAALGCLVKDYFPEPVTVSWNSGALTSGVHTFPAVLQSSGLYSLSSVVTVPSSSLGTQTYICNVNHKPSNTKVDKKVEPKSCDKTHTCPPCPAPELLGGPDVFLFPPKPKDTLMISRTPEVTCVVVDVSHEDPEVKFNWYVDGVEVHNAKTKPREEQYNSTYRVVSVLTVLHQDWLNGKEYKCKVSNKALPLPEEKTISKAKGQPREPQVCTLPPSRDELTKNQVSLWCLVKGFYPSDIAVEWESNGQPENNYKTTPPVLDSDGSFFLYSKLTVDKSRWQQGNVFSCSVMHEALHNHYTQKSLSLSP
heavy 2: QDQLVQSGAEVKKPGASVKVSCKASGFNIKDTYIQWVRQAPGQGLEWMGRIDPLRKQTKYREKFEGRVTITADTSTNTAYMELSSLRSEDTAVYYCVRSGREFDYWGQGTLVTVSSASTKGPSVFPLAPSSKSTSGGTAALGCLVKDYFPEPVTVSWNSGALTSGVHTFPAVLQSSGLYSLSSVVTVPSSSLGTQTYICNVNHKPSNTKVDKKVEPKSCDKTHTCPPCPAPELLGGPDVFLFPPKPKDTLMISRTPEVTCVVVDVSHEDPEVKFNWYVDGVEVHNAKTKPREEQYNSTYRVVSVLTVLHQDWLNGKEYKCKVSNKALPLPEEKTISKAKGQPREPQVYTLPPSRCELTKNQVSLSCAVKGFYPSDIAVEWESNGQPENNYKTTPPVLDSDGSFFLVSKLTVDKSRWQQGNVFSCSVMHEALHNHYTQKSLSLSP
light: DIQMTQSPSSLSASVGDRVTITCRASQDIHKYIAWYQQKPGQAPRLLIQYTSTLQPGVPSRFSGSGSGTDYTFTISSLQPEDIATYYCLQYEQLRTFGGGTKVEIKRTVAAPSVFIFPPSDEQLKSGTASVVCLLNNFYPREAKVQWKVDNALQSGNSQESVTEQDSKDSTYSLSSTLTLSKADYEKHKVYACEVTHQGLSSPVTKSFNRGEC
notes: S239D/A330L/I332E in both H chains (called homodimerized)
What is called Kd is a measure of binding affinity in units of concentration. High values mean weaker binding, low ones tighter binding. Take B1: the dissociation constant Kd in assay [1] is 690 nM; in assay [2], 0.073 nM; in assay [3], 340 nM; in assay [4], 620 nM; in assay [5], 9.1 nM; in assay [6], 3.1 nM.

B2: H240-Kn061/H240-Hl071/L73-k0 (antibody, human IgG1, kappa)
heavy 1: QDQLVQSGAEVKKPGASVKVSCKASGFNIKDTYIQWVRQAPGQGLEWMGRIDPLRKQTKYREKFEGRVTITADTSTNTAYMELSSLRSEDTAVYYCVRSGREFDYWGQGTLVTVSSASTKGPSVFPLAPSSKSTSGGTAALGCLVKDYFPEPVTVSWNSGALTSGVHTFPAVLQSSGLYSLSSVVTVPSSSLGTQTYICNVNHKPSNTKVDKKVEPKSCDKTHTCPPCPAPEYYWGPSVFLFPPKPKDTLMISRTPEVTCVVVDVSDEDPEVKFNWYVDGVEVHNAKTKPREEQYNATYRVVSVLTVLHQDWLNGKEYKCKVSNKALPAPIEKTISKAKGQPREPQVCTLPPSRDELTKNQVSLWCLVKGFYPSDIAVEWESNGQPENNYKTTPPVLDSDGSFFLYSKLTVDKSRWQQGNVFSCSVMHEALHNHYTQKSLSLSP
heavy 2: QDQLVQSGAEVKKPGASVKVSCKASGFNIKDTYIQWVRQAPGQGLEWMGRIDPLRKQTKYREKFEGRVTITADTSTNTAYMELSSLRSEDTAVYYCVRSGREFDYWGQGTLVTVSSASTKGPSVFPLAPSSKSTSGGTAALGCLVKDYFPEPVTVSWNSGALTSGVHTFPAVLQSSGLYSLSSVVTVPSSSLGTQTYICNVNHKPSNTKVDKKVEPKSCDKTHTCPPCPAPELLGGPSVFLFPPKPKDTLMISRTPEVTCVVVDVSHEDPEVKFNWYVDGVEVHNAKTKPREEQYNSTYRVVSVLTVLHQDWLNGKEYKCKVSNDALPMPIEETISKAKGQPREPQVYTLPPSRCELTKNQVSLSCAVKGFYPSDIAVEWESNGQPENNYKTTPPVLDSDGSFFLVSKLTVDKSRWQQGNVFSCSVMHEALHNHYTQKSLSLSP
light: DIQMTQSPSSLSASVGDRVTITCRASQDIHKYIAWYQQKPGQAPRLLIQYTSTLQPGVPSRFSGSGSGTDYTFTISSLQPEDIATYYCLQYEQLRTFGGGTKVEIKRTVAAPSVFIFPPSDEQLKSGTASVVCLLNNFYPREAKVQWKVDNALQSGNSQESVTEQDSKDSTYSLSSTLTLSKADYEKHKVYACEVTHQGLSSPVTKSFNRGEC
notes: Heterodimerized anti-EREG IgG1: L234Y/L235Y/G236W/H268D/S298A in Kn061, K326D/A330M/K334E in Hl071
Turning to B2, the dissociation constant (Kd) was determined as 5.1 nM with FcgRIIIa F; 350 nM with FcgRIIa R; 1200 nM in the assay with FcgRIIb; 280 nM in the assay with FcgRIIa H; 0.14 nM in the assay with FcgRIa; 1.8 nM with FcgRIIIa V.

B3: H240-afucosyl_G1d/L73-k0 (antibody, human IgG1, kappa)
heavy: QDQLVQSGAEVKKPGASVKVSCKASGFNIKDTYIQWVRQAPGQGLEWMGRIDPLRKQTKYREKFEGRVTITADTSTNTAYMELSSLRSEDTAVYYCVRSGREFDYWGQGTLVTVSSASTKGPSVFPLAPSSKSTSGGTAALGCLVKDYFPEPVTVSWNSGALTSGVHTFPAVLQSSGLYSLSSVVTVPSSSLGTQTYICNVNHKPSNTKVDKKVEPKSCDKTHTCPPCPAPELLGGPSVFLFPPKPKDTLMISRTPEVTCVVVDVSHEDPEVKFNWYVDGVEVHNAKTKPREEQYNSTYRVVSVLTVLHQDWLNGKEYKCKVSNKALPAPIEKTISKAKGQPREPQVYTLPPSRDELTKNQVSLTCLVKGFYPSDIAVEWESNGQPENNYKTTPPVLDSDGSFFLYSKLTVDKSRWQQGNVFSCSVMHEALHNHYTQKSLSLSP
light: DIQMTQSPSSLSASVGDRVTITCRASQDIHKYIAWYQQKPGQAPRLLIQYTSTLQPGVPSRFSGSGSGTDYTFTISSLQPEDIATYYCLQYEQLRTFGGGTKVEIKRTVAAPSVFIFPPSDEQLKSGTASVVCLLNNFYPREAKVQWKVDNALQSGNSQESVTEQDSKDSTYSLSSTLTLSKADYEKHKVYACEVTHQGLSSPVTKSFNRGEC
modifications: fucose removed from the sugar chain (afucosylated)
notes: also called afucosylated antibody
As for B3, the Kd worked out at 780 nM in assay [1]; 0.43 nM in assay [2]; 490 nM in assay [3]; 2600 nM in assay [4]; 78 nM in [5]; 6.9 nM in [6].
